Entries after “also recorded” stand apart in the source; their conditions may differ.
Key:
MMP-9 [1] = biological target: T1, MMP-9 (Homo sapiens, UniProt P14780); experiment: ELISA binding, cross-reactivity
MMP-14 [2] = biological target: T2, MMP-14 (Homo sapiens, UniProt P50281); experiment: ELISA binding, cross-reactivity
MMP-13 = MMP-13 (Homo sapiens, UniProt P45452); experiment: ELISA binding, cross-reactivity
MMP-12 = MMP-12 (Homo sapiens, UniProt P39900); experiment: Enzymatic activity of related MMPs (fluorogenic peptide); type: biochemical; details: in vitro
MMP-12, sequence (P39900 106-470): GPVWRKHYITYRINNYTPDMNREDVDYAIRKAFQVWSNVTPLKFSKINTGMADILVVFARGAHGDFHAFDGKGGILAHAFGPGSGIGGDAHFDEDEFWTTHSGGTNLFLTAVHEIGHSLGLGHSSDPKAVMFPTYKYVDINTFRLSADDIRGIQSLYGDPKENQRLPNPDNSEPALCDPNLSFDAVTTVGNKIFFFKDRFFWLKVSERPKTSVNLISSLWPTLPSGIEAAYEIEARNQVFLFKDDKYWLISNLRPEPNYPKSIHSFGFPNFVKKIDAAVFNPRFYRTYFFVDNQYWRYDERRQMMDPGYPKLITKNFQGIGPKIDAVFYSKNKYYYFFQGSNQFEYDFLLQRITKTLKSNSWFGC
Description: (§1) MMP-7 enzymatic kinetic assay: The enzymatic activity of MMP-7 in the presence of GSM-192 Fab was measured at 37° C. by monitoring the hydrolysis of fluorogenic peptide Mca-Pro-Leu-Gly-Leu-Dpa-Ala-Arg-NH2 (SEQ ID NO: 10) at λex=340 nm and […] as described previously^30. A range of different concentrations of GSM-192 Fab (0-200 nM) were incubated with 10 nM of MMP-7 in 50 mM Tris-HCl buffer (pH 7.5 at 37° C.), 100 mM NaCl, 5 mM CaCl2, and 0.05% Brij-35 for 2 h at 37° C. The enzymatic reaction was initiated by addition of the fluorogenic peptide to a final concentration of 10 μM. Fluorescence was recorded immediately and continuously for 30 min.
(§2) Remarkably, considering that the immunization booster also included the common zinc motif, the antibody is fully selective for MMP-7. The effect of GSM-192 Fab fragment on the enzymatic activity of human MMP-7 was examined in vitro using a short fluorogenic peptide according to a standard protocol. The enzymatic activity of recombinant active MMP-7 was measured in the presence of increasing concentrations of the Fab fragment of GSM-192. […] Simultaneously the effect of the antibody on catalytic activity of related MMPs was measured.

MMP-14 [3] = biological target: T2, MMP-14; experiment: as above; type: biochemical; details: in vitro
Description: as §1, §2

MMP-9 [4] = biological target: T1, MMP-9; experiment: as above; type: biochemical; details: in vitro
Description: as §1, §2

[5] = biological target: T3, activated MMP-7 recombinant enzyme (Homo sapiens, UniProt P09237); experiment: Dot blot, activated enzyme; type: binding; details: different concentrations of enzyme
T3 sequence (P09237 95-267): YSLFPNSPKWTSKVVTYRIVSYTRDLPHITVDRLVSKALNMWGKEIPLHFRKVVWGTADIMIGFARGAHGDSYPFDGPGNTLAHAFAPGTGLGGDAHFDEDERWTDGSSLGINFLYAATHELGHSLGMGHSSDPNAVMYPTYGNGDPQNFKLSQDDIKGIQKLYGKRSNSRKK
Description: A dot blot was performed by immobilizing 1, 1.5 and 2 μg zymogen and activated MMP-7 recombinant enzyme on nitrocellulose membrane pre wetted with TBST using a vacuum based manifold 96 well dot-blot system (GE 10447900 Minifold dot blot). The blocking was performed for 1 hour at room temperature with 3% BSA in TBST. The membrane was then probed for binding by antibody eluted in the earlier step by incubating overnight. The anti MMP-7 mAb used was at 2 ug/ml concentration in TBST. The membrane after 3 washes in TBST was incubated with goat anti mouse HRP antibody and developed using ECL to determine the selectivity of binding towards catalytic form only.

CFPAC-1 cells [6] = experiment: Wound healing assay (scratch assay); type: cell-based, human; details: 7 hours post treatment, vs control antibody GST
Description: Wound Healing Assay (Scratch Assay): The migratory behavior of cells was assayed by means of a wound-healing assay using a culture-insert (ibidi GmbH, Am Klopferspitz 19, Martinsried, Germany) according to the manufacturer's instruction. After 24 h the culture-inserts were removed leaving a cell-free gap (“defined as a wound”) of approx. 500 μm. The migration rate into this “wound area” was documented and measured using Carl Zeiss microscope (DeltaVision Microscopy Imaging Systems—GE Healthcare Life Sciences, USA). The migration rate was determined by percentage area covered by cells. Each analysis was performed in triplicates and was repeated two times.
(§3) GSM-192 Fab reduces cell motility in vitro: MMP-7 mediated E-Cadherin cleavage promotes cell migration^19, so it was hypothesized that an effective anti MMP-7 antibody directed to the activated enzyme should be able to impact migration.

CFPAC-1 cells [7] = experiment: Trans-well migration assay; type: cell-based, human; details: 15 h post treatment, sub-lethal concentrations
Description: Trans-well migration assay: Cells were starved overnight in assay media (IMDM media containing only 1% serum). Cells (1×10^5) were added to the top chambers of 24-well transwell plates (BD Biosciences; 8 μm pore size), and assay media, with or without GSM-192, was added to both chambers. […] The numbers of cells in five fields were counted under 20× magnification, and the mean for each chamber determined.
as §3

[8] = test system: RIP1-Tag2 insulinoma (PanNET) model; experiment: Early stage treatment in RIP1-Tag2 (PanNET) mice; type: in vivo, mouse; details: 3 mg/kg every day IP; for area covered by CD34+ cells: islets undergoing angiogenesis
Excerpt: RIP1-Tag2: The RIP1Tag2 (RT2) murine PanNET model was developed by the fusion of Rat Insulin II promoter region to the SV40 early region that encodes the large T and small t antigens. Although oncogene expression begins during embryonic development (E8.5), the pancreatic islets initially have a normal anatomical and histological appearance (“normal” stage). Beginning at 4-5 weeks of age, hyperplastic and dysplastic islets begin to appear, rending 50% of all islets by 10 weeks of age. Angiogenic islets appear beginning around 6 weeks of age, and represent 10% of all islets at 10.5 weeks. Angiogenic islets are recognized by their dilated blood vessels and micro-hemorrhages. Tumors form beginning at 9-10 weeks and represent 2-4% of all the islets by 14 weeks. About half of the tumors at end stage evidence either focal or widespread invasion to the surrounding acinar tissue. RIP-Tag2 mice die at approximately 14 weeks of age primarily due to hyperinsulinemia.
GSM-192 treatment reduces occurrence of advanced tumor lesions in RIP1-Tag2 (PanNET) mice in early stage treatments: RIP1-Tag2 mice (n=15) in transition stage from hyperplastic to angiogenic stage spanning 6 to 8 weeks of age were treated with GSM-192 and GST control antibody at a concentration of 3 mg/kg every day intra peritoneal (IP). Animals at age 8 weeks post treatment was sacrificed and their pancreas was embedded in paraffin blocks and sectioned. Several sections in different depth in the tissue were made for subsequent histological analysis or immunofluorescence staining. Tumor sizes and staging was done in accordance with RIP1-Tag2 manual. […] As previously observed in in-vitro cell culture, the tissue was tested for differences in cell proliferation rate (with cell division marker Ki-67) and in cell apoptosis rate (with effector apoptotic marker Caspase-3).

[9] = 6 to 8 weeks of age, listed as anti MMP-7 mAb

T1 sequence (P14780 94-707, species assumed): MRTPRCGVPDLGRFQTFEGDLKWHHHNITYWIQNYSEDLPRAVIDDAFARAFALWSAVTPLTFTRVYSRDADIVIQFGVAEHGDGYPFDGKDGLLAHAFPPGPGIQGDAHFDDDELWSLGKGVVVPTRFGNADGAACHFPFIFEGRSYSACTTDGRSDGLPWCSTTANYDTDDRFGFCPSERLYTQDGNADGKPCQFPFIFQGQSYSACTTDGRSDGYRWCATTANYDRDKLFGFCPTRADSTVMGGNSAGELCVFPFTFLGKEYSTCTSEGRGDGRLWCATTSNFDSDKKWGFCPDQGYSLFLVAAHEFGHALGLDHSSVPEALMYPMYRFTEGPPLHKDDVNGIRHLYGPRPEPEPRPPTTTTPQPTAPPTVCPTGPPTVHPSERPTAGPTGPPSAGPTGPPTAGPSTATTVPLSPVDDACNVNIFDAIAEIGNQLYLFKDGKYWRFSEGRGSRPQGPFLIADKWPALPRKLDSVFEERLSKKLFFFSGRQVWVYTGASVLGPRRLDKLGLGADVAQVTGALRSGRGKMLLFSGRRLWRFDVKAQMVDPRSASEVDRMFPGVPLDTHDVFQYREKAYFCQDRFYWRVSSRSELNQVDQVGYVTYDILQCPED

B1: GSM-192: monoclonal antibody to MMP-7 binding the catalytic domain, not the zymogen; VL SEQ ID NO: 1, VH SEQ ID NO: 2 (antibody, V domains shown)
VH: EVQLQQSGPELVKPGASVKIPCKASGYTFTDYNMDWMKQSHGKSLEWIGHINPNNGGTFYNQKFKDKATFIVDKSSNTAYMELRSLTSEDTAVYFCARGGGLRRGPFAYWGQGTLVTVS
VL: DIVTQSPASLAVSLGQRATISCRASESFDSYGNTFVHWYQQKPGQPPKLLIYLVSNLESGVPAGFRGRGSRTDFTLTIDPVEADDAATYYCQQNNEDPYTFGGGTKLEIKRA
modifications: GSM-192 Heavy Chain Sequence; GSM-192 Light Chain Sequence
crossreactivity to MMP-9 (MMP-9 [1]): did not show crossreactivity | crossreactivity to MMP-14 (MMP-14 [2]): did not show crossreactivity | crossreactivity to MMP-13 (MMP-13): did not show crossreactivity | effect on catalytic activity of MMP-12 (MMP-12): negligible or no effect | effect on catalytic activity of MMP-14 (MMP-14 [3]): negligible or no effect | effect on catalytic activity of MMP-9 (MMP-9 [4]): negligible or no effect | binding to activated form of MMP-7 [5]: bound to the catalytic domain | binding to activated form of MMP-7 ([5]; listed as anti MMP-7 Ab): selective binding | cell migration / rate of wound closure (CFPAC-1 cells [6]): significant reduction in rate of wound closure; also recorded: slowed down cell migration | cells migrating across the transwell membrane (CFPAC-1 cells [7]): almost by half; also recorded: reduces cells migrating across the transwell membrane significantly | number of Caspase-3 positive cells (apoptosis) ([8]; 6 to 8 weeks of age): No significant change | number of Ki-67 positive cells (cell proliferation) ([8]; 6 to 8 weeks of age): No significant change | number of Caspase-3 positive cells (apoptosis) [8, 9]: does not show significant difference | number of Ki-67 positive cells (cell proliferation) [8, 9]: does not show significant difference | number of angiogenic islets / fraction of islets advancing to post angiogenic lesions ([8]; 6 to 8 weeks of age, vs GST control antibody): reduced almost by half; also recorded: half of the total seen in control mice | area covered by CD34+ cells [8]: less abundant | area covered by CD34+ cells ([8]; listed as anti MMP-7 mAb): reduces the area covered by CD34+ cells

Reference: patent US12291578B2, “Anti-matrix metalloproteinase 7 (MMP-7) inhibitory antibody and uses thereof” (Yeda Research and Development Co. Ltd., priority 2019, dated 2025)
